Measurements as given in patent publication US20260234242A1 (HAINAN SIMCERE ZAIMING PHARMACEUTICAL, published 2026).
Read-outs that look alike come from different tables or passages of the source.

T1: his-tagged human CDH6 extracellular region protein (hCDH6 ECD-his) (human, UniProt P55285 19-615)
T1 construct: also called Human CDH6-his; hCDH6-his; not shown: his tag
T1 sequence: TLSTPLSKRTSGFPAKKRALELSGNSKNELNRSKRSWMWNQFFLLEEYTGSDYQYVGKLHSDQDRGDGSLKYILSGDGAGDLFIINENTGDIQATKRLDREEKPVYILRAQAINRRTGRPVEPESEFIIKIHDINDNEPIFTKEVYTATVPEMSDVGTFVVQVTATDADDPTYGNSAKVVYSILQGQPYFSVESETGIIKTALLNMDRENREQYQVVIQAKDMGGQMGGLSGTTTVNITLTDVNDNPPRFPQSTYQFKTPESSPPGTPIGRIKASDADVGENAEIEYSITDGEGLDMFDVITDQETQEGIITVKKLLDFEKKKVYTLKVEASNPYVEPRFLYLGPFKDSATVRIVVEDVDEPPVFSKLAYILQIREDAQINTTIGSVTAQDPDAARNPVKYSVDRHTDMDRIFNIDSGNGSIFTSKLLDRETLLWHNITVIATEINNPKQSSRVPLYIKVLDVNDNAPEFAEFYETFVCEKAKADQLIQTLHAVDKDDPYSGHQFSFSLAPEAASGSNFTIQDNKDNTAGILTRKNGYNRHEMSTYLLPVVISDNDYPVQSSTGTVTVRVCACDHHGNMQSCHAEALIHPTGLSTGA

T2: human CDH6 on tumor cells (OVCAR3 cells, PA-1 cells) (human, UniProt P55285 54-790)
T2 sequence: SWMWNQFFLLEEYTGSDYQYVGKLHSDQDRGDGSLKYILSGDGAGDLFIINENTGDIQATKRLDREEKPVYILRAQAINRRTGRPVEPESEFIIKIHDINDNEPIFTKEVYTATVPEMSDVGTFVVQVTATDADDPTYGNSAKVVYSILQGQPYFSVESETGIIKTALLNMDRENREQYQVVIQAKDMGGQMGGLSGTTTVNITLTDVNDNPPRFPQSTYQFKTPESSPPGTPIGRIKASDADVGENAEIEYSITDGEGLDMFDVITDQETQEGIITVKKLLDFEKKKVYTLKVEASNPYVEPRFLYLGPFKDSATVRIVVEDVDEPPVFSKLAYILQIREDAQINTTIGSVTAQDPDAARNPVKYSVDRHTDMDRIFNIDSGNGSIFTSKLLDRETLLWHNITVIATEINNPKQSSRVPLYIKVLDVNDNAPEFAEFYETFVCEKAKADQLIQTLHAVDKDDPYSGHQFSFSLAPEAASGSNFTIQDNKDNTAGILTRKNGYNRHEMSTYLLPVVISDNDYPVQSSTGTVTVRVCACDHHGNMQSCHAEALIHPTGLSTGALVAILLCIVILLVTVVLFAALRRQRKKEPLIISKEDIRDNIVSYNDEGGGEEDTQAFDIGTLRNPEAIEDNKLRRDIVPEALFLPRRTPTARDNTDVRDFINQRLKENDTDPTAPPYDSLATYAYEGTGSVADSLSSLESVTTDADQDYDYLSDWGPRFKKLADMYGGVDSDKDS


What was measured:
[1] = target: T1, his-tagged human CDH6 extracellular …; assay: ELISA, coated antigen
[2] = target: T2, human CDH6 on tumor cells (OVCAR3 …); assay: FACS, OVCAR3 cells, 4° C. arm of endocytosis assay
Protocol: OVCAR3 cells were cultured until a confluence of 90% was reached, the medium was removed by pipetting, the cells were washed once with PBS, and then treated with an enzyme-free cell dissociation solution (Versene, purchased from Gibco, Cat. No. 15040-066) and the cells were collected. The cells were washed once with PBS, counted, resuspended to 2×10⁶ cells/mL in an FACS buffer (PBS+2% FBS), and then added to two 96-well plates at 50 μL/well. The chimeric antibodies were diluted with FACS buffer (PBS+2% FBS) to 10 μg/mL and separately added to the two 96-well plates at 50 μL/well, and the plates were incubated at 4° C. for 1 h. After the cells were washed 3 times with PBS, the cells were resuspended in an FACS buffer. One 96-well plate was incubated at 4° C. for 1 h, and the other 96-well plate was incubated at 37° C. for 1 h. […] After the plates were centrifuged and washed 2 times with PBS, the cells were resuspended in an FACS buffer. The mean fluorescence intensity (MFI) was measured using FACS Canton II (BD). The chimeric antibodies tested all had good endocytic activity.
Some of the antibodies were selected for the endocytic activity assay, and the method for assaying the endocytic activity of the humanized antibodies in OVCAR3 cells was the same as that in 2.4. The humanized antibodies tested all had good endocytic activity.

[3] = target: T2, human CDH6 on tumor cells (OVCAR3 …); assay: FACS, PA-1 cells
Protocol: (§1) OVCAR3 cells with high expression of CDH6 and PA-1 cells with moderate expression of CDH6 were used to detect the binding activity of the antibodies to the cells. […] The cells were washed once with PBS, counted, resuspended to 2×10⁶ cells/mL in an FACS buffer (PBS+2% FBS), and then added to a 96-well plate at 50 μL/well. The chimeric antibodies were diluted with FACS buffer (PBS+2% FBS) and added to the 96-well plate at 50 μL/well, and the plate was incubated at 4° C. for 1 h. […] The dilution was added to the 96-well plate at 50 μL/well, and the plate was incubated at 4° C. for 1 h. After the plates were centrifuged and washed 2 times with PBS, the cells were resuspended in an FACS buffer. The mean fluorescence intensity (MFI) was measured using FACS Canton II (BD). Analysis was performed by the GraphPad Prism software, data were fitted, and EC50 values were calculated. The chimeric antibodies tested had strong binding to both OVCAR3 cells and PA-1 cells.
(§2) According to the above sequences, heavy chain (HC) and light chain (LC) plasmids were constructed (the nucleic acid sequences encoding the VH and VL of the antibodies were recombined into an expression vector carrying a signal peptide (SEQ ID NO: 132, […]) and a heavy chain constant region/light chain constant region sequence to obtain recombinant plasmids expressing VH-CH1-Fc/VL-CL). According to the expression and purification methods in Example 2, the hCDH6-14 humanized antibodies were obtained, and the binding activity of the humanized antibodies was detected by ELISA and FACS (see 2.2 and 2.3 for the method).

[4] = target: T1, his-tagged human CDH6 extracellular …; assay: SPR Biacore, antibody captured on Protein A
Protocol: The affinity of the antibody for the antigen was determined by a multi-cycle kinetic method using a BIAcore 8K instrument. In each cycle, the antibody to be tested was captured using a Protein A chip (purchased from GE, Cat. No. 29-1275-56), and then the antigen human CDH6 protein (hCDH6-his, conventionally synthesized) was injected. The association and dissociation processes of the antibody with the antigen protein were recorded, and finally, the chip was regenerated using Glycine pH 1.5, wherein the mobile phase was HBS-EP+ (10 mM HEPES, 150 mM NaCl, 3 mM EDTA, 0.05% surfactant P20, and 1 mM Ca), the flow rate was 30 μL/min, the association time was 240 s, the dissociation time was 300 s, the regeneration time was 30 s, the detection temperature was 25° C., and the antigen concentration was 31.25-1000 nM. The data were analyzed using Biacore 8K analysis software (version No. 2.0) based on the 1:1 binding model to fit the antibody-antigen binding kinetic parameters, including the association rate constant ka, the dissociation rate constant kd, and the equilibrium dissociation constant KD. The affinity values of the control antibody DS-H01L02 were undetectable. Antibodies not shown in the table had undetectable affinity values.
Four hCDH6-6 humanized antibodies with fewer back mutations were selected, and the affinity for human CDH6 protein was further confirmed using Biacore.

[5] = target: T2, human CDH6 on tumor cells (OVCAR3 …); assay: FACS, OVCAR3 cells
Protocol: as §1
as §2, with “VH—CH1-Fc/VL-CL).” for “VH-CH1-Fc/VL-CL).”, “hCDH6-6” for “hCDH6-14”

[6] = target: T1, his-tagged human CDH6 extracellular …; assay: ELISA, coated antigen; remark: listed apart in the source
Protocol: Human CDH6 protein (hCDH6 ECD-his, conventionally synthesized), monkey CDH6 protein (cynoCDH6 ECD-his, conventionally synthesized; the cynoCDH6 ECD sequence was derived from Uniprot #A0A2K5TW62 (19-615)), and murine CDH6 protein (mCDH6 ECD-his, conventionally synthesized; the mCDH6 ECD sequence was derived from Uniprot #P97326 (19-615)) were diluted with PBS to a final concentration of 1 μg/mL, and added to a 96-well ELISA plate at 100 μL/well. The plate was incubated at 4° C. overnight. The next day, the plate was washed 3 times with a plate washing solution (PBS+0.01% (v/v) Tween 20), and a blocking buffer (PBS+0.01% (v/v) Tween 20+2% (w/w) BSA) was added for blocking at room temperature for 2 h. The blocking buffer was discarded, and the plate was washed 3 times. The chimeric antibodies were diluted with 1% BSA+PBS (purchased from Cytiva, Cat. No. SH30264.01) and added to the 96-well plate at 50 μL/well. After incubation at 37° C. for 2 h, the plate was washed 3 times with a plate washing solution. […] The plate was incubated at 37° C. for 1 h and then washed 5 times with a plate washing solution. A TMB substrate (purchased from Seracare, Cat. No. 5120-0077) was added at 50 μL/well and incubated at room temperature for 10 min, then a stop solution (1.0 N HCl) was added at 50 μL/well. OD450 nm values were read using a microplate reader (Biotek). Analysis was performed by the GraphPad Prism software, data were fitted, and EC50 values were calculated. The chimeric antibodies tested all had strong binding to the human CDH6 protein, the monkey CDH6 protein, and the murine CDH6 protein.
According to the above sequences, heavy chain (HC) and light chain (LC) plasmids were constructed (the nucleic acid sequences encoding the VH and VL of the antibodies were recombined into an expression vector carrying a signal peptide (SEQ ID NO: 132, […]) and a heavy chain constant region/light chain constant region sequence to obtain recombinant plasmids expressing VH—CH1-Fc/VL-CL).

Row | EC50 [1] [nM] | Max OD450 [1] [OD450] | MFI_4° C. [2] [MFI] | EC50 [3] [nM] | Max MFI [3] [MFI] | Kd [4] [nM] | koff [4] [s⁻¹] | kon [4] [M⁻¹ s⁻¹] | EC50 [5] [nM] | Max MFI [5] [MFI] | EC50 [6] [nM] | Max OD450 [6] [OD450] | Binder
1 | 0.062 | 2.72 | 16100 | 0.25 | 3890 | – | – | – | – | – | – | – | hCDH6-14-H6L3 (antibody, V domains shown, Humanized) VH: EVQLVQSGAEVKKPGASVKVSCKASGYTFTDNYINWVRQAPGQRLEWMGWIYPGTGNSYYNEKFKGRVTITVDTSASTAYMELSSLRSEDTAVYLCASSYGDSFDYWGQGTTVTVSS VL: DIVMTQSPDSLAVSLGERATINCRASQDIRNYLNWYQQKPGQTPKLLISYTSRLHSGVPDRFSGSGSGTDFTLTISSLQAEDVAVYYCQQYSQLPWTFGGGTKVEIK
2 | – | – | – | – | – | 138 | 0.00607 | 44100 | 0.62 | 14300 | 0.028 | 2.07 | hCDH6-6-H1L2 (antibody, V domains shown, Humanized) VH: EVQLVQSGAEVKKPGASVKVSCKASGYTFTDYYMAWVRQAPGQGLEWMGYIFPNSGGTDYSQKFKGRVTMTVDKSTSTVYMELSSLRSEDTAVYYCARELGADYGDYYAMDHWGQGTTVTVSS VL: DIQMTQSPSSLSASVGDRVTITCRASENIDSYLAWYQQKPGKSPKLLVYSATLLADGVPSRFSGSGSGTDYTLTISSLQPEDFATYYCQHYYRTPPTFGQGTKLEIK
3 | – | – | – | – | – | 133 | 0.00616 | 46200 | 0.61 | 14000 | 0.032 | 2.01 | hCDH6-6-H2L1 (antibody, V domains shown, Humanized) VH: EVQLVQSGAEVKKPGASVKVSCKASGYTFTDYYMAWVRQAPGQGLEWMGYIFPNSGGTDYSQKFKGRVTLTVDKSTSTVYMELSSLRSEDTAVYYCARELGADYGDYYAMDHWGQGTTVTVSS VL: DIQMTQSPSSLSASVGDRVTITCRASENIDSYLAWYQQKPGKSPKLLLYSATLLADGVPSRFSGSGSGTDYTLTISSLQPEDFATYYCQHYYRTPPTFGQGTKLEIK
4 | – | – | – | – | – | 192 | 0.00743 | 38600 | 0.62 | 13700 | 0.037 | 2.08 | hCDH6-6-H1L1 (antibody, V domains shown, Humanized) VH: EVQLVQSGAEVKKPGASVKVSCKASGYTFTDYYMAWVRQAPGQGLEWMGYIFPNSGGTDYSQKFKGRVTMTVDKSTSTVYMELSSLRSEDTAVYYCARELGADYGDYYAMDHWGQGTTVTVSS VL: DIQMTQSPSSLSASVGDRVTITCRASENIDSYLAWYQQKPGKSPKLLLYSATLLADGVPSRFSGSGSGTDYTLTISSLQPEDFATYYCQHYYRTPPTFGQGTKLEIK
